{"source": "paper PMC6078970", "about": "“Nonequilibrium self-assembly dynamics of icosahedral viral capsids packaging genome or polyelectrolyte” (Nature Communications, 2018)", "proteins": {"B1": {"name": "cowpea chlorotic mottle virus (CCMV) capsid protein, dimeric subunit (natural protein)", "chain": "RVVQPVIVEPIASGQGKAIKAWTGYSVSKWTASCAAAEAKVTSAITISLPNELSSERNKQLKVGRVLLWLGLLPSVSGTVKSCVTETQTTAAASFQVALAVADNSKDVVAAMYPEAFKGITLEQLTADLTIYLYSSAALTEGDVIVHLEVEHVRPTFDDSFTPVY", "notes": "capsid (coat) protein of cowpea chlorotic mottle virus, extracted from purified virions; 90 dimers make the T = 3 capsid; Protein as it stands in native virions; no tag; also called CCMV subunits; subunits; source: CCMV grown in blackeye cowpea leaves; capsid proteins extracted from purified virions (dialysis against 0.5 M CaCl2, centrifugation at 150,000 x g)"}}, "molecular_target": "the molecule itself", "test": "SAXS (static); purified subunits alone, pH 7.5, ionic strength 0.5 M; radius of gyration 33 Å"}
{"protein": "B1", "values": [{"measurement": "stoichiometry N", "value": 2}]}
